Target: recombinant influenza HA3-protein (from H3N2, Wyoming, March 2003, Sino Biological Inc.) (Influenza virus H3N2 (Wyoming, March 2003))
Assay: SPR imaging (IBIS MX96), antibody captured on anti-human-IgG chip, HA3 1 ug/ml; global 1:1 fit in Scrubber2

B1: AT10_004 (antibody, V domains shown)
VH: QVQLVQSGAEVRKPGASVKVSCKASGYTFTRHGISWVRQAPGQGLEWMGWISAYTGDTDYAQKFQGRVTMTTDTSTNTAYMELRSLRSDDAAVYYCARLRLQGEVVVPPSQSNWFDPWGQGTLVTVSS
VL: EIVLTQSPATLSLYPGERATLSCRASQSVSRYLAWYQQKPGQAPRLLIYDASNRATGIPARFSGSGSGTDFTLTISSLEPEDFAVYYCQQRSNWLKITFGQGTRLEIKG
In the case of B1, the Kd is reported as 0.07 nM, the koff is reported as 1e-06 s⁻¹ and the kon is reported as 14000 M⁻¹ s⁻¹.

Source: US9969795
